In patent publication US20250361308A1 (NEUROGENE, published 2025):
Read-outs that look alike come from different tables or passages of the source.

T1: human CD122 and CD132 expressed on a HEK293 cell line (human, UniProt P14784 27-551; P31785 23-369)
T1 construct: whole, on cells; also called IL-2RBG; IL-2Rβγ on cells
T1 sequence (looked up) 1: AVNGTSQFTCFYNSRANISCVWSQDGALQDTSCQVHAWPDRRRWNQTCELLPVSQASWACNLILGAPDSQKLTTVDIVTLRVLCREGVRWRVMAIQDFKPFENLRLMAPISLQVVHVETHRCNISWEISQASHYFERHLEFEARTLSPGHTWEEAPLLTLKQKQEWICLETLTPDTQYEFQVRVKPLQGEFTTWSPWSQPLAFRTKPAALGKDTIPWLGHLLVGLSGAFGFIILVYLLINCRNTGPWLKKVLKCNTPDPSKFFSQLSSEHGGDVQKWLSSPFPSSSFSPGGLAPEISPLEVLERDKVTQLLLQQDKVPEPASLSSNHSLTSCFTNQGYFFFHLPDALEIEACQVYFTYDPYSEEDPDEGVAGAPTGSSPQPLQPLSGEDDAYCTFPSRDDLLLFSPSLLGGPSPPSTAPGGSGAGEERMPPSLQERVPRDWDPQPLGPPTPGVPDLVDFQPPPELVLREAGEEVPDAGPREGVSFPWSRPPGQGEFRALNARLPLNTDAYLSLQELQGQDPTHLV
T1 sequence (looked up) 2: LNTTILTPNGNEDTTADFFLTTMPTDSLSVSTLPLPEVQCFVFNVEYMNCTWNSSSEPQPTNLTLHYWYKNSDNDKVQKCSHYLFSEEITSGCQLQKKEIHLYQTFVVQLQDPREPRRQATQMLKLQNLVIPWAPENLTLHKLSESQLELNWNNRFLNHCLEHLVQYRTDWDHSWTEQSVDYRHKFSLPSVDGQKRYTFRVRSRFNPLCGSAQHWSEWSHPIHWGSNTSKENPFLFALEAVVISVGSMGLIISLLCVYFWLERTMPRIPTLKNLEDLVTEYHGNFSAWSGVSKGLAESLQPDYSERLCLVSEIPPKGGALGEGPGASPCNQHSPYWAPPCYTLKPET

T2: huIL2Rβγ: Human IL-2 R gamma/CD132 Protein, Fc Tag (ILG-H5256) with Human IL-2 R beta/CD122 Protein, His Tag … (human, UniProt P31785 23-254; P14784 27-239)
T2 construct: IL-2Rγ-Fc sat on the sensor; IL-2Rβ-His was in solution at a concentration equimolar to or greater than the analyte; also called IL-2RBG; not shown: Fc tag of the bought reagent; His tag of the bought reagent
T2 sequence (looked up) 1: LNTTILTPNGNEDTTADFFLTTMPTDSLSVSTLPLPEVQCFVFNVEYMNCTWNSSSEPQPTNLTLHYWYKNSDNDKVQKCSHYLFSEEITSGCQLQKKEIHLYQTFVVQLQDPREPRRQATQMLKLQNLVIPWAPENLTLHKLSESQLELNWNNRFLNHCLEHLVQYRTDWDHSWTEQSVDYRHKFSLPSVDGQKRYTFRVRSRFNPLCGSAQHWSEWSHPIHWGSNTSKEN
T2 sequence (looked up) 2: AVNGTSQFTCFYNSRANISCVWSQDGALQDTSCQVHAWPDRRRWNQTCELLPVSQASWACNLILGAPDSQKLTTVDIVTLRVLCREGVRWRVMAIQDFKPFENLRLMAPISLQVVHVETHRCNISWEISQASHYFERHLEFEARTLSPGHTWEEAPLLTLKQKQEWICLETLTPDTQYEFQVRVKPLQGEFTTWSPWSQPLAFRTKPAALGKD

T3: Human IL-2 R beta/CD122 Protein, Fc Tag (ILB-H5253) (human, UniProt P14784 27-239)
T3 construct: Bought protein, captured on anti-human Fc sensors; also called huIL2Rβ; IL-2Rβ; not shown: Fc tag of the bought reagent
T3 sequence (looked up): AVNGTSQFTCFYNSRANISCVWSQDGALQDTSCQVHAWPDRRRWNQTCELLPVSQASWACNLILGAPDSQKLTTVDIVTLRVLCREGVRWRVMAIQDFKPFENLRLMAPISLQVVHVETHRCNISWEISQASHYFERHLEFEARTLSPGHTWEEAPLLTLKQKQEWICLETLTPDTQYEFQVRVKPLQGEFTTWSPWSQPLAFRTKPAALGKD

B1: C terminal anti-CD25 full-length Ab fusion with Neo-2/15_D15S_Q95E (TRA comprising SEQ ID NO: 69 and 70) (other)
heavy: QVQLVQSGAEVKKPGSSVKVSCKASGYTFTSYRMHWVRQAPGQGLEWIGYINPSTGYTEYNQKFKDKATITADESTNTAYMELSSLRSEDTAVYYCARGGGVFDYWGQGTLVTVSSASTKGPSVFPLAPSSKSTSGGTAALGCLVKDYFPEPVTVSWNSGALTSGVHTFPAVLQSSGLYSLSSVVTVPSSSLGTQTYICNVNHKPSNTKVDKKVEPKSCDKTHTCPPCPAPEAAGAPSVFLFPPKPKDTLMISRTPEVTCVVVDVSHEDPEVKFNWYVDGVEVHNAKTKPREEQYNSTYRVVSVLTVLHQDWLNGKEYKCKVSNKALPAPIEKTISKAKGQPREPQVYTLPPSREEMTKNQVSLTCLVKGFYPSDIAVEWESNGQPENNYKTTPPVLDSDGSFFLYSKLTVDKSRWQQGNVFSCSVMHEALHNHYTQKSLSLSPGKGGGGSGGGGSGGGGSPKKKIQLHAEHALYSALMILNIVKTNSPPAEEKLEDYAFNFELILEEIARLFESGDQKDEAEKAKRMKEWMKRIKTTASEDEQEEMANAIITILESWIFS
light: DIQMTQSPSTLSASVGDRVTITCSASSSISYMHWYQQKPGKAPKLLIYTTSNLASGVPARFSGSGSGTEFTLTISSLQPDDFATYYCHQRSTYPLTFGQGTKVEVKRTVAAPSVFIFPPSDEQLKSGTASVVCLLNNFYPREAKVQWKVDNALQSGNSQESVTEQDSKDSTYSLSSTLTLSKADYEKHKVYACEVTHQGLSSPVTKSFNRGEC
notes: also called distal fused TRA
B2: N terminal anti-CD25 full-length Ab fusion with Neo-2/15_D15S_Q95E (other)
heavy: GSPKKKIQLHAEHALYSALMILNIVKTNSPPAEEKLEDYAFNFELILEEIARLFESGDQKDEAEKAKRMKEWMKRIKTTASEDEQEEMANAIITILESWIFSGGGGSGGGGSGGGGSQVQLVQSGAEVKKPGSSVKVSCKASGYTFTSYRMHWVRQAPGQGLEWIGYINPSTGYTEYNQKFKDKATITADESTNTAYMELSSLRSEDTAVYYCARGGGVFDYWGQGTLVTVSSASTKGPSVFPLAPSSKSTSGGTAALGCLVKDYFPEPVTVSWNSGALTSGVHTFPAVLQSSGLYSLSSVVTVPSSSLGTQTYICNVNHKPSNTKVDKKVEPKSCDKTHTCPPCPAPEAAGAPSVFLFPPKPKDTLMISRTPEVTCVVVDVSHEDPEVKFNWYVDGVEVHNAKTKPREEQYNSTYRVVSVLTVLHQDWLNGKEYKCKVSNKALPAPIEKTISKAKGQPREPQVYTLPPSREEMTKNQVSLTCLVKGFYPSDIAVEWESNGQPENNYKTTPPVLDSDGSFFLYSKLTVDKSRWQQGNVFSCSVMHEALHNHYTQKSLSLSPGK
light: DIQMTQSPSTLSASVGDRVTITCSASSSISYMHWYQQKPGKAPKLLIYTTSNLASGVPARFSGSGSGTEFTLTISSLQPDDFATYYCHQRSTYPLTFGQGTKVEVKRTVAAPSVFIFPPSDEQLKSGTASVVCLLNNFYPREAKVQWKVDNALQSGNSQESVTEQDSKDSTYSLSSTLTLSKADYEKHKVYACEVTHQGLSSPVTKSFNRGEC
B3: N terminal anti-CD25 full-length Ab fusion with Neo-2/15_N40S_I44S_Q95E (TRA comprising SEQ ID NO: 74 and 70) (other)
heavy: GSPKKKIQLHAEHALYDALMILNIVKTNSPPAEEKLEDYAFSFELSLEEIARLFESGDQKDEAEKAKRMKEWMKRIKTTASEDEQEEMANAIITILESWIFSGGGGSGGGGSGGGGSQVQLVQSGAEVKKPGSSVKVSCKASGYTFTSYRMHWVRQAPGQGLEWIGYINPSTGYTEYNQKFKDKATITADESTNTAYMELSSLRSEDTAVYYCARGGGVFDYWGQGTLVTVSSASTKGPSVFPLAPSSKSTSGGTAALGCLVKDYFPEPVTVSWNSGALTSGVHTFPAVLQSSGLYSLSSVVTVPSSSLGTQTYICNVNHKPSNTKVDKKVEPKSCDKTHTCPPCPAPEAAGAPSVFLFPPKPKDTLMISRTPEVTCVVVDVSHEDPEVKFNWYVDGVEVHNAKTKPREEQYNSTYRVVSVLTVLHQDWLNGKEYKCKVSNKALPAPIEKTISKAKGQPREPQVYTLPPSREEMTKNQVSLTCLVKGFYPSDIAVEWESNGQPENNYKTTPPVLDSDGSFFLYSKLTVDKSRWQQGNVFSCSVMHEALHNHYTQKSLSLSPGK
light: DIQMTQSPSTLSASVGDRVTITCSASSSISYMHWYQQKPGKAPKLLIYTTSNLASGVPARFSGSGSGTEFTLTISSLQPDDFATYYCHQRSTYPLTFGQGTKVEVKRTVAAPSVFIFPPSDEQLKSGTASVVCLLNNFYPREAKVQWKVDNALQSGNSQESVTEQDSKDSTYSLSSTLTLSKADYEKHKVYACEVTHQGLSSPVTKSFNRGEC
notes: also called proximal fused TRA
B4: Neo-2/15_D15A (designed binder)
chain: PKKKIQLHAEHALYAALMILNIVKTNSPPAEEKLEDYAFNFELILEEIARLFESGDQKDEAEKAKRMKEWMKRIKTTASEDEQEEMANAIITILQSWIFS
B5: Neo-2/15_I44A (designed binder)
chain: PKKKIQLHAEHALYDALMILNIVKTNSPPAEEKLEDYAFNFELALEEIARLFESGDQKDEAEKAKRMKEWMKRIKTTASEDEQEEMANAIITILQSWIFS
B6: Neo-2/15_H11A (designed binder)
chain: PKKKIQLHAEAALYDALMILNIVKTNSPPAEEKLEDYAFNFELILEEIARLFESGDQKDEAEKAKRMKEWMKRIKTTASEDEQEEMANAIITILQSWIFS
B7: Neo-2/15_N40A (designed binder)
chain: PKKKIQLHAEHALYDALMILNIVKTNSPPAEEKLEDYAFAFELILEEIARLFESGDQKDEAEKAKRMKEWMKRIKTTASEDEQEEMANAIITILQSWIFS
B8: Neo-2/15_Q95A (designed binder)
chain: PKKKIQLHAEHALYDALMILNIVKTNSPPAEEKLEDYAFNFELILEEIARLFESGDQKDEAEKAKRMKEWMKRIKTTASEDEQEEMANAIITILASWIFS
B9: Neo-2/15_H8A (designed binder)
chain: PKKKIQLAAEHALYDALMILNIVKTNSPPAEEKLEDYAFNFELILEEIARLFESGDQKDEAEKAKRMKEWMKRIKTTASEDEQEEMANAIITILQSWIFS
B10: Neo-2/15_Y14A (designed binder)
chain: PKKKIQLHAEHALADALMILNIVKTNSPPAEEKLEDYAFNFELILEEIARLFESGDQKDEAEKAKRMKEWMKRIKTTASEDEQEEMANAIITILQSWIFS

Assays:
[1] = target: T1, human CD122 and CD132 expressed on a …; experiment: flow cytometry saturation binding on HEK293 cells expressing human CD122 and CD132; apparent KD
Experimental: Saturation binding studies were done using a HEK293 cell line expressing human CD122 and CD132. […] Cells were incubated for 30 minutes on ice, then pelleted and washed twice with cold PBS. […] After a 30-minute incubation on ice, the cells were pelleted and washed twice in cold PBS. […] The apparent dissociation constant (KD) was calculated using GraphPad Prism (GraphPad, San Diego, CA).

[2] = target: T2, huIL2Rβγ: Human IL-2 R gamma/CD132 …; experiment: Octet BLI; IL-2Rγ-Fc on anti-human Fc sensors with IL-2Rβ-His in solution, 1:1 steady-state model
Experimental: (§1) Binding data was collected in the Octet RED96 instrument and processed using the integrated Octet software. […] Anti-Human Fc Capture (AHC) sensors were equilibrated for 90s in 1× Cytiva HBS-EP+ Buffer 10 binding buffer. Sensors were loaded with receptor by mixing with wells containing 0.5 ug/ml aforementioned receptors until a threshold response reached 1.0 nm. Sensors were then baselined in binding buffer for 90s. After baseline measurement, the association kinetics (kon) were monitored by dipping the biosensors in wells containing analyte for 400s. […] Dissociation kinetics (koff) were monitored by dipping the biosensors in separate wells of binding buffer for 800s. The dissociation constant (Kd) was calculated using a 1:1 steady-state binding model with the Octet software.

[3] = target: T3, Human IL-2 R beta/CD122 Protein, Fc Tag …; experiment: Octet BLI; IL-2Rβ-Fc on anti-human Fc sensors, Neo-2/15 variant as analyte, 1:1 steady-state model
Experimental: as §1

[4] = target: T2, huIL2Rβγ: Human IL-2 R gamma/CD132 …; experiment: Octet BLI; IL-2Rγ-Fc on anti-human Fc sensors with IL-2Rβ-His in solution, 1:1 steady-state model; remark: listed apart in the source
Experimental: as §1

[5] = target: T3, Human IL-2 R beta/CD122 Protein, Fc Tag …; experiment: Octet BLI; IL-2Rβ-Fc on anti-human Fc sensors, Neo-2/15 variant as analyte, 1:1 steady-state model; remark: listed apart in the source
Experimental: as §1

| Binder | Kd [1] [µM] | Kd [2] [µM] | Kd [3] [µM] | Kd [4] [µM] | Kd [5] [µM] |
| --- | --- | --- | --- | --- | --- |
| B1 | 0.131 | – | – | – | – |
| B2 | 0.082 | – | – | – | – |
| B3 | 0.131 | – | – | – | – |
| B4 | – | 0.23 | 0.14 | – | – |
| B5 | – | 0.058 | 0.084 | – | – |
| B6 | – | – | – | 0.015 | 0.0033 |
| B7 | – | 0.044 | 0.06 | – | – |
| B8 | – | 0.19 | 0.003 | – | – |
| B9 | – | – | – | 0.011 | 0.0014 |
| B10 | – | – | – | 0.01 to 0.02 | 0.0007 |
